# In IntAct's records for PubMed 10220404:
# B1: Protein enabled (Drosophila melanogaster (Fruit fly)), Q8T4F7 (parent)
# chain: MAMKKLYAKTSFTSKKPSSAANSTPILAYHQQQHQQPGNGICEFQVVAPGHSGELMIRRSQSMHHKMSPPVGGLGSKSEYYSIEELQELDLLDYRHPMYHHYQQQELRQRYHEHEQLVLQLPKATSPKAGPIYEAPQRSQQQQDQMLYVPTAAQRDSSSSAAATSIASSSTLTSSPSPSSSSSLIFSTLRKCVSPSNPSVNPNQPSKTQPSKLGCSMSFSIRTTTATAATAAAANAATATLSTQQQQQQAQQQHKQHLYSNIHHYLIRQQQQKQHYTLQRRHNSVKDKFIGGITTIFAEQSIIGARASVMVYDDNQKKWVPSGSSSGLSKVQIYHHQQNNTFRVVGRKLQDHEVVINCSILKGLKYNQATATFHQWRDSKFVYGLNFSSQNDAENFARAMMHALEVLSGRVANNPGGPPTNGNGYEEDMGYRTMTSEDAAILRQNNSIGGHVTPSAQTPTSQTNQNNIPQSPPTPQGHHRTSSAPPAPQPQQQQQQQQAQQMGQPGSHYGPTGNGPTSNGLPQQVNSQIPPAPQQQPQQQQFQQQQQQQQYQQMVQAGYAPSQQYQQPHYVLSNSNPNLTVHQYPTQQAQQQPPQAPQPPLQNGGMYMVGHGHLPSSASANSVVYASQQQMLPQAHPQAPQAPTMPGPGYGGPPVPPPQQQAENPYGQVPMPPPMNPSQQQQPGQVPLNRMSSQGGPGGPPAPAPPPPPPSFGGAAGGGPPPPAPPQMFNGAPPPPAMGGGPPPAPPAPPAMGGGPPPAPGGPGAPPPPPPPPGLGGAPKKEDPQADLMGSLASQLQQIKLKKNKVTTSAPENSGSSTSSGGSGNYGTIGRSSNGMASMMDEMAKTLARRRAQAEKKDPDPEAEVKKRPWEKSNTLPHKLSGGAGSGSAGSGHEGANGNSGGAGSNTTNSGGESPRPMRKRFGSASEETILKVNGDGLSLALSNGDLDTLKAEIVREMRLEIQKVKNEIIDAIKSEFNRR
# Assays:
# [1] = variants of: B1; settings: with abl_drome Abl
# [2] = variants of: B1; settings: with src_mouse Src
Variant,effect of a mutation on the interaction [1],effect of a mutation on the interaction [2]
P701A;P707A;P708A;P709A,decreasing interaction,decreasing interaction
P763A;P770A;P771A;P772A,decreasing interaction,decreasing interaction
